Numbering of substitutions follows the chain as printed.
What was measured:
[1] = target: T1, TMEW1 (TMEFF2-FL-ECD-His-Avitag) (human, UniProt Q9UIK5 41-320); test: Biacore 8K SPR, mAb captured on anti-human Fc, single cycle kinetics
T1 construct: Human TMEFF2 ECD with C-terminal G3S, 6xHis tag and Avi-tag, all in the entry; also called TMEFF2 ECD
T1 sequence: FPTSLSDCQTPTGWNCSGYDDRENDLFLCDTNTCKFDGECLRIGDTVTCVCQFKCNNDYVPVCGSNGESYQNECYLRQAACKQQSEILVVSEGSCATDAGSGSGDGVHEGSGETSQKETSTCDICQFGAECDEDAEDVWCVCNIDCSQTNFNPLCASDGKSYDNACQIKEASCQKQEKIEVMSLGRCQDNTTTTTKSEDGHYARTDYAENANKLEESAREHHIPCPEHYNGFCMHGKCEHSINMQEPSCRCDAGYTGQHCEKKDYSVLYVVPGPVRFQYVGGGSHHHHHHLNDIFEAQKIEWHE
Method: The binding of anti-TMEFF2 mAbs to human TMEFF2 ECD was measured by Biacore 8K SPR. The format of the assay was to capture the mAbs using a high density anti-human Fc surface, then inject human TMEFF2 concentration titration using a single cycle kinetics method. […] The mAbs were captured on the anti-human Fc IgG surface at 0.5 μg/ml (˜200-300 RU) on flow cell 2. The running buffer was then changed to HBSP+100 ug/ml BSA. TMEFF2 ECD at 30 nM concentration in 3-fold dilution series was injected from low to high concentration using single cycle kinetics method. The off-rate was monitored 30 minutes after the last or highest concentration injection and then the surface was regenerated using 0.8% phosphoric acid (Bio-Rad). A buffer blank run, capturing the same mAbs and using the same conditions of sample run was also completed. The raw data were processed by subtracting two sets of reference data from the response data: 1) reference flow cell 1 subtracted from sample flow cell 2 and 2) buffer blank run from experimental run. The processed data at all concentrations for each mAb were globally fit to a 1:1 simple Langmuir binding model to extract estimates of the kinetic (kon, koff) and affinity (KD) constants.

Rh-integrin a4b7 = target: T2, Rh-integrin a4b7 (UniProt P13612 34-977; P26010 20-723, limits assumed); test: Biacore 8K SPR, antibody over immobilised protein
T2 construct: rh read as recombinant human
Method: (§1) Non-specific binding of the lead molecule to unrelated surfaces is determined by biosensor technology (Biacore 8K). Antibody is passed over SPR surfaces coated with unrelated proteins. […] Irrelevant surfaces include negatively charged protein (Soy Trypsin Inhibitor), positively charged protein (Lysozyme and β-defensin), hydrophobic (Rh-integrin a4b7), human IgG, sticky protein (Rh-CD19). Proper controls are used in this experiment. Lead is flown over two surfaces, one is a blank and the other has a molecule directly immobilized. The response unit (RU) level is determined by subtracting the blank RU from the test surface RU. […] A response unit ≥100 predicts high risks for non-specific binding to charged/hydrophobic/IgG surfaces which would create challenges during manufacturing and translate to poor PK properties.

Rh-CD19 = target: T3, Rh-CD19 (UniProt P15391 20-291, limits assumed); test: Biacore 8K SPR, antibody over immobilised protein
T3 construct: rh read as recombinant human
T3 sequence (looked up): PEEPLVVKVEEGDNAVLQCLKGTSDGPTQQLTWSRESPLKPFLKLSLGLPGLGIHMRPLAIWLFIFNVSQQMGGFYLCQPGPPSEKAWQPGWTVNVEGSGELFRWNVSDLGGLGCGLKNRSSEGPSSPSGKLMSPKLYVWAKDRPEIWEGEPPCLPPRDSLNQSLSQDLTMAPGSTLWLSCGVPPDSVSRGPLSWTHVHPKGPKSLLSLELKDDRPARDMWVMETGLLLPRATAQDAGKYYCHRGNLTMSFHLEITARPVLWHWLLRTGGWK
Method: as §1

[2] = target: T4, human PSMA on cells (LNCaP) (human, UniProt Q04609 1-750); test: flow cytometry, mammalian Fab supernatant on LNCaP cells, anti-human kappa-RPE
T4 construct: whole, on cells; also called LNCaP cells
T4 sequence (Q04609 whole entry): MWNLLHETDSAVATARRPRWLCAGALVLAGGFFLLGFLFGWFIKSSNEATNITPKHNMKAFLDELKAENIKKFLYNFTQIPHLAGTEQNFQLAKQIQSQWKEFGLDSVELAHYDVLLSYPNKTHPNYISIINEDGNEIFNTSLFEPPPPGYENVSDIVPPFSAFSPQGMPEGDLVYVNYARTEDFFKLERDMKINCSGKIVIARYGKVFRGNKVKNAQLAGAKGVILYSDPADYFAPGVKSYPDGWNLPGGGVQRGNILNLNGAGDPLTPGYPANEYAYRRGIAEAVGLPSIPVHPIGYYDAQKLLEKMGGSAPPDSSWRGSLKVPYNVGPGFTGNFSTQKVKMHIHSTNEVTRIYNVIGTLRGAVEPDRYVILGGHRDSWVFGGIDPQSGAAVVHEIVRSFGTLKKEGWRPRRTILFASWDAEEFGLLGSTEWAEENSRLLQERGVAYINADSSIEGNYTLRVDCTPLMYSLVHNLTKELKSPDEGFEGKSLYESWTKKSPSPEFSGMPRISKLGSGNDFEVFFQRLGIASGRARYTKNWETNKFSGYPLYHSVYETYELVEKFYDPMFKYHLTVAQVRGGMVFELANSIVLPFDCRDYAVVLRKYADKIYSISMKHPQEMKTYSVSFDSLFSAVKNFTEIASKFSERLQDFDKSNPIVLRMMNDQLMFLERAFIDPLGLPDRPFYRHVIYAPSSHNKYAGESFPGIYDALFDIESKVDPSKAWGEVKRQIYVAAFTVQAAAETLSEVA
Method: Individual Fab clones were isolated from the round 3 output of all panning experiments following pIX excision. Fab clones were tested for binding to chimp and cyno PSMA expressing HEK cells, as well as to human PSMA on LNCaP cells. Briefly, PSMA expressing cells were aliquoted into a V-bottom plate (CoStar 3357) at a density of 200,000 per well and incubated with (100 μl) supernatants expressing Fab fragments for 1 hour on ice. Cells were washed twice with PBS containing 2% FBS, and stained with a mouse anti-human kappa-RPE antibody (Life Technologies cat #MH10514) for 1 hour on ice. Cells were washed twice with PBS containing 2% FBS and resuspended in […] of the same wash buffer. Plates were read on a BD FACS Array flow cytometer. FACS data was analyzed in FlowJo software by live gating the healthy population of cells using forward scatter and side scatter, and then analyzing the cells within this gate for PE staining. Mean fluorescence intensity (MFI) was calculated and exported into Microsoft Excel. […] Fabs were sequenced and moved forward for cloning into mammalian expression vector for rescreening. True positives were selected from the binding of mammalian cell expressed Fab supernatants to PSMA-expressing cell lines.
FIGS. 22A, 22B, 22C and 22D show the titration curves for anti-PSMA panning hits vs. LNCaP cells. […] Binding profiles among hits were compared across cell lines expressing different species of PSMA.

[3] = target: human IL1RAP on NCI-H1975 cells (human); test: cell-based or functional assay
[4] = target: T5, human IL1RAP (interleukin-1 receptor accessory protein) on LAMA-84 cells (human); test: cell-based or functional assay
[5] = target: T5, human IL1RAP (interleukin-1 receptor …); test: cell-based or functional assay; remark: listed apart in the source
Human CD33 ECD-HSA = target: T6, Human CD33 ECD-HSA (human); test: SPRi off-rate screen (IBIS MX96)
T6 construct: CD33 ECD fused at the C-terminus to monomeric HSA (C58S) and a six-histidine tag; also called C33W2; huCD33 ECD-HSA

B1: TMEB757 (antibody, human IgG4 S228P, kappa, F234A L235A, V domains shown)
VH: EVQLLESGGGLVQPGGSLRLSCAASGFTFSSYSMSWVRQAPGKGLEWVSVISGSGGFTDYADSVKGRFTISRDNSKNTLYLHMNSLRAEDTAVYYCARMPLNSPHDYWGQGTLVTVSS
VL: AIQMTQSPSSLSASVGDRVTITCRASQGIRNDLGWYQQKPGKAPKLLIYAASSLQSGVPSRFSGSGSGTDFTLTISSLQPEDFATYYCLQDYNYPLTFGGGTKVEIKR
notes: IgG4 PAA anti-TMEFF2; re-engineered variant of TMEB675; also called TMEH460/B76L85; TMEFB757
Kd [1]: 0.31 nM
koff [1]: 0.000167 s⁻¹
kon [1]: 542000 M⁻¹ s⁻¹

B2: TMEB762 (antibody, human IgG4 S228P, kappa, F234A L235A, V domains shown)
VH: B1 VH with H82Q
VL: B1 VL with A1D
notes: IgG4 PAA; also called TMEH459/DL3L129
binding result (Rh-integrin a4b7): no binding (tested: response unit ≥100 predicts high risks)
binding result (Rh-CD19): no binding (tested: response unit ≥100 predicts high risks)

B3: PSMM81 (Fab, V domains shown)
VH: QVQLVQSGAEVKKPGSSVKVSCKASGGTFDDYAISWVRQAPGQGLEWMGRIDPIEGTANYAQKFQGRVTITADESTSTAYMELSSLRSEDTAVYYCARDRYYYDGVYWYSDYFDYWGQGTLVTVS
VL: not shown
notes: Mammalian Fab supernatant; also called PSMB80
EC50 (read off the curve) [2]: ~0.08 µg/mL

B4: TMCB150 (bispecific antibody, human IgG4 S228P, kappa, lambda, F234A L235A)
heavy 1: not shown
light 1: not shown
heavy 2: QVQLQQSGPRLVRPSQTLSLTCAISGDSVFNNNAAWSWIRQSPSRGLEWLGRTYYRSKWLYDYAVSVKSRITVNPDTSRNQFTLQLNSVTPEDTALYYCARGYSSSFDYWGQGTLVTVSSASTKGPSVFPLAPCSRSTSESTAALGCLVKDYFPEPVTVSWNSGALTSGVHTFPAVLQSSGLYSLSSVVTVPSSSLGTKTYTCNVDHKPSNTKVDKRVESKYGPPCPPCPAPEAAGGPSVFLFPPKPKDTLMISRTPEVTCVVVDVSQEDPEVQFNWYVDGVEVHNAKTKPREEQFNSTYRVVSVLTVLHQDWLNGKEYKCKVSNKGLPSSIEKTISKAKGQPREPQVYTLPPSQEEMTKNQVSLTCLVKGFYPSDIAVEWESNGQPENNYKTTPPVLDSDGSFLLYSKLTVDKSRWQEGNVFSCSVMHEALHNHYTQKSLSLSLGK
light 2: QSALTQPASVSGSPGQSITISCTGTSSNIGTYKFVSWYQQHPDKAPKVLLYEVSKRPSGVSSRFSGSKSGNTASLTISGLQAEDQADYHCVSYAGSGTLLFGGGTKLTVLGQPKAAPSVTLFPPSSEELQANKATLVCLISDFYPGAVTVAWKADSSPVKAGVETTTPSKQSNNKYAASSYLSLTPEQWKSHRSYSCQVTHEGSTVEKTVAPTECS
notes: IgG4 PAA; also called TMEB762×CD3B376
binding result (Rh-integrin a4b7): no binding (tested: response unit ≥100 predicts high risks)
binding result (Rh-CD19): no binding (tested: response unit ≥100 predicts high risks)

B5: IC3B19 (bispecific antibody, human IgG4 S228P, kappa, F234A L235A)
heavy: not shown
light: DIQLTQSPSFLSASVGDRVTITCRASQGISSYLAWYQQKPGKAPKLLIYAASTLQSGVPSRFSGSGSGTEFTLTISSLQPEDFATYYCQQVNSYPLTFGGGTKVEIKRTVAAPSVFIFPPSDEQLKSGTASVVCLLNNFYPREAKVQWKVDNALQSGNSQESVTEQDSKDSTYSLSSTLTLSKADYEKHKVYACEVTHQGLSSPVTKSFNRGEC
VH: EVQLVESGGGLVQPGGSLRLSCAASGFTFNTYAMNWVRQAPGKGLEWVARIRSKYNNYATYYAASVKGRFTISRDDSKNSLYLQMNSLKTEDTAVYYCARHGNFGNSYVSWFAYWGQGTLVTVSS
VL: QTVVTQEPSLTVSPGGTVTLTCRSSTGAVTTSNYANWVQQKPGQAPRGLIGGTNKRAPGTPARFSGSLLGGKAALTLSGVQPEDEAEYYCALWYSNLWVFGGGTKLTVL
cytotoxicity EC50, caspase 3/7 assay, NCI-H1975 cells with pan T cells [3]: 0.018 nM

B6: IC3B19 (IAPB57×CD3B219) IL1RAP×CD3 bispecific antibody (bispecific antibody, human IgG4 S228P, kappa, F234A L235A)
heavy: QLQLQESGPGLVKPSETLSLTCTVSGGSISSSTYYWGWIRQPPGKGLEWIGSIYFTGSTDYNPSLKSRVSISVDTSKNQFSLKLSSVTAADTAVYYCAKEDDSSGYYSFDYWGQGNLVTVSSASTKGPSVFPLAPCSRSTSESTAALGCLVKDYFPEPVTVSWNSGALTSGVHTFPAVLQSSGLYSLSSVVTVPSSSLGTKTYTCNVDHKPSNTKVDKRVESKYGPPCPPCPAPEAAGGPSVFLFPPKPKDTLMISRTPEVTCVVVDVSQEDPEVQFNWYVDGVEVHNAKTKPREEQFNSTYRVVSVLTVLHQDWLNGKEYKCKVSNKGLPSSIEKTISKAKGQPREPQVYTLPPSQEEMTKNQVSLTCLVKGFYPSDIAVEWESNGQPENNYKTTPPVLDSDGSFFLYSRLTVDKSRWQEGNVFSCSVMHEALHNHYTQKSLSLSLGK
light: B5 light
VH: B5 VH
VL: B5 VL
Cytotoxicity EC50 (nM), LAMA-84 cell line, whole blood T cell cytotoxicity assay, 48 h [4]: 2.1 nM
T-cell Activation EC50 (nM) (CD25), LAMA-84 cell line, whole blood assay, 48 h [5]: 4.24 nM

B7: IC3B34 (IAPB57×CD3B376) IL1RAP×CD3 bispecific antibody (bispecific antibody, human IgG4 S228P, kappa, lambda, F234A L235A)
heavy 1: not shown
light 1: B5 light
heavy 2: B4 heavy 2
light 2: B4 light 2
Cytotoxicity EC50 (nM), LAMA-84 cell line, whole blood T cell cytotoxicity assay, 48 h [4]: 2.76 nM
T-cell Activation EC50 (nM) (CD25), LAMA-84 cell line, whole blood assay, 48 h [5]: 7.83 nM

B8: IC3B34 (bispecific antibody, human IgG4 S228P, kappa, F234A L235A)
heavy: not shown
light: B5 light
VH: QVQLQQSGPRLVRPSQTLSLTCAISGDSVFNNNAAWSWIRQSPSRGLEWLGRTYYRSKWLYDYAVSVKSRITVNPDTSRNQFTLQLNSVTPEDTALYYCARGYSSSFDYWGQGTLVTVSS
VL: QSALTQPASVSGSPGQSITISCTGTSSNIGTYKFVSWYQQHPDKAPKVLLYEVSKRPSGVSSRFSGSKSGNTASLTISGLQAEDQADYHCVSYAGSGTLLFGGGTKLTVL
cytotoxicity EC50, caspase 3/7 assay, NCI-H1975 cells with pan T cells [3]: 0.057 nM

B9: C33B782 (antibody, IgG4, V domains shown)
VH: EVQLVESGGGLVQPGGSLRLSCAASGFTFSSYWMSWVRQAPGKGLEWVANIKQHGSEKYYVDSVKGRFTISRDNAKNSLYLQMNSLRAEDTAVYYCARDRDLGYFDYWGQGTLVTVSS
VL: SYELTQPPSVSVSPGQTASITCSGNKLGAKFASWYQQKPGQSPVLVIYQDNKRPSGIPERFSGSNSGNTATLTISGTQAVDEADYYCQAWDSSTVVFGGGTKLTVL
notes: also called C33H72/C33L40; C33F82
koff (Human CD33 ECD-HSA): 0.000258 s⁻¹

B10: C33B792 (antibody, IgG4, V domains shown)
VH: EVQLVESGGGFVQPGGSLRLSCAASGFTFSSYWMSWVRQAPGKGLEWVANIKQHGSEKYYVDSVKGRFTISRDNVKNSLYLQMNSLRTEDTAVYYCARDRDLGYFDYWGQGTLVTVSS
VL: B9 VL with N25D, A29N, F31Y, N51T, F61V, V80M, Y86H
notes: also called C33H87/C33L35; C33F92
koff (Human CD33 ECD-HSA): 0.000427 s⁻¹

From patent US20230322924A1 (Janssen / Centocor, published 2023)
